Measurements: US20120165244A1, “METHODS FOR BINDING LEWIS Y ANTIGEN” (priority 2008, published 2012)

Tests used:
[1] = LPS binding assay (coated wells); parameters: species or system E. coli; conditions: FIG. 4B
Protocol: (§1) K. pneumoniae (3×10^5 CFU/well), E. coli O111:B4 smooth-type LPS (5 μg/well), or bovine serum albumin (BSA, 5 μg/well) in 100 μL of bicarbonate buffer (pH 9.6) were coated onto wells of high-binding microtiter plate (Corning Costar, Cambridge, Mass.). Nonspecific binding was blocked with binding buffer (20 mM Tris-HCl, pH 7.4, 0.15 M NaCl, 5 mM CaCl2) containing 50 mg/mL BSA. Various concentrations of rTMD proteins without or with CD14 (10 μg/mL; R&D Systems) in binding buffer containing 1 mg/mL BSA were added to wells and incubated for 2 hours. In some experiments, 0.2 M mannose, 5 mM EDTA, or Le^y were included in the binding buffer to compete with LPS and rTMD1 binding. Antibody against the c-Myc epitope of the rTMD proteins was added to wells and incubated for 2 hours, and peroxidase-labeled secondary antibody followed. Binding of rTMD proteins was detected by measuring absorbance at 450 nm.

[2] = target: T1, binding of CD14 to LPS (Homo sapiens, UniProt P08571); assay: Blockage of the binding of CD14 to LPS; conditions: FIG. 4D
T1 construct: purchased R&D Systems
T1 sequence (P08571 20-352 limits assumed): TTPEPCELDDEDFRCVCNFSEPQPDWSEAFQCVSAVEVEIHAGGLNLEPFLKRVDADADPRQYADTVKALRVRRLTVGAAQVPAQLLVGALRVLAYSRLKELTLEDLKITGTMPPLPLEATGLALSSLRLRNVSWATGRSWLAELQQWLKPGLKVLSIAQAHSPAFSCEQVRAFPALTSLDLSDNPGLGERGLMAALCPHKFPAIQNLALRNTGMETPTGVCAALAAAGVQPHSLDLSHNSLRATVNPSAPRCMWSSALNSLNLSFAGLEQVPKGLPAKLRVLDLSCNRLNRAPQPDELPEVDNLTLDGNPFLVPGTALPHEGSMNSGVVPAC
Protocol: as §1

[3] = Clearance of LPS in circulation (Limulus amebocyte lysate test); type: in vivo; conditions: LPS 20 mg/kg i.p.; rTMD1 10 mg/kg i.v.
Protocol: Male FVB mice (8-10 weeks old) were used to model sepsis in vivo. The Institutional Animal Care and Use Committee of the National Cheng Kung University approved procedures. In the chronic endotoxemia model, various concentrations of rTMD1 or rTMD proteins in equi-molar amounts were administrated by tail intravenous (i.v.) injection and LPS (20 mg/kg) or K. pneumoniae (5×10^2 CFU/mouse, BCRC) was administrated by intraperitoneal (i.p.) injection. After 6 or 12 hours, mice were sacrificed by pentobarbital anesthesia (50 mg/kg; i.p.). […] The half-life of rTMD1 in the circulation was determined by i.v. injection of rTMD1 (10 mg/kg, equals 436.64 nmole/kg) and serum samples were collected at various time intervals. The levels of rTMD1 in the collected sera were determined by a sandwich ELISA which employed anti-c-Myc monoclonal antibody and TM-H300 as capture and detection antibodies (both from Santa Cruz Biotechnology), respectively. […] Mortality was monitored every 6-12 hours until all mice in either experimental group died. […] Serum samples were collected at various time intervals and the amount of LPS was determined by Limulus amebocyte lysate test (Associates of Cape Cod, E. Falmouth, Mass.). […] Outgrowth of K. pneumoniae was quantified by plating serial dilutions of blood samples on blood agar plates and enumerating colonies after overnight incubation at 37° C.

[4] = test system: K. pneumoniae; assay: K. pneumoniae binding assay (coated wells); conditions: FIG. 4A
Protocol: as §1

[5] = test system: THP-1 cells; assay: THP-1 phagocytosis assay with FITC-labeled K. pneumoniae; type: cell-based, Human; conditions: activated THP-1 cells
Protocol: (§2) Human leukemia monocytic THP-1 cells and murine macrophage cell line RAW 264.7 were obtained from the American Type Culture Collection. THP-1 cells were grown in suspension in RPMI-1640 supplemented with 10 mM HEPES, 1 mM sodium pyruvate, 0.1% β-mercaptoethanol, 100 U/ml penicillin, 100 µg/ml streptomycin, and 10% fetal bovine serum (FBS). RAW 264.7 cells were grown as an adhered layer in Dulbecco's modified Eagle's medium with 4 mM L-glutamine adjusted to contain 1.5 g/l sodium bicarbonate and 4.5 g/l glucose, 100 U/ml penicillin, […] streptomycin, and 10% FBS under a humidified 5% CO2 atmosphere at 37° C. For differentiation, THP-1 cells were plated in medium containing 10 nM PMA and allowed to adhere for 18 h.
FITC-labeled K. pneumoniae (1×10^5 CFU/well) were pre-incubated with rTMD1 at 37° C. for 30 minutes before adding to differentiated THP-1 cells. After incubation for 2 hours the THP-1 cells were washed twice with ice-cold PBS prior to fluorescence microscopy, or were further trypsinized, resuspended in PBS, and analyzed in a fluorescence-activated cell sorter (FACS; Becton Dickinson, San Jose, Calif.) to measure THP-1 cell intracellular fluorescence. Green fluorescence data from 10,000 events (cells) per condition collected at 530 nm on a log scale were analyzed with CellQuest™ software (Becton Dickinson).

[6] = test system: RAW 264.7 cells; assay: LPS-induced TNF-α production in RAW 264.7 cells (ELISA); type: cell-based, murine
Protocol: as §2
TNF-α in conditioned medium or mouse serum was measured by an enzyme-linked immunosorbent assay (ELISA) (R&D Systems, Minneapolis, Minn.). Accumulation of nitrite in the medium or mouse serum was determined by a colorimetric assay using Griess reagent (Sigma-Aldrich). Blood urea nitrogen (BUN) and creatinine were measured with a Roche D&P modular (Roche Diagnostic Systems, Branchburg, N.J.). Assays were performed according to the manufacturer's protocol.

B1: rTMD1: recombinant human thrombomodulin N-terminal lectin-like domain (residues Ala1-Ala155) with 6×His tag and c-Myc epitope, Pichia pastoris expressed (protein)
chain: EFAPAEPQPGGSQCVEHDCFALYPGPATFLNASQICDGLRGHLMTVRSSVAADVISLLLNGDGGVGRRRLWIGLQLPPGCGDPKRLGPLRGFQWVTGDNNTSYSRWARLDLNGAPLCGPLCVAVSAAEATVPSEPIWEEQQCEVKADGFLCEFHFPAYLEDDDDKIEQKLISEEDLNSAVDHHHHHH
modifications: left off: small tags and cut ends
binding to LPS [1]: specifically bound | Kd ([1]; estimated from the 50% saturation, read-out: apparent Kd of the binding of LPS with rTMD1): ~1600 nM | binding of CD14 to LPS [2]: inhibited | LPS clearance [3]: significantly enhanced | binding to K. pneumoniae [4]: specifically bind | bacterial phagocytosis by THP-1 cells [5]: markedly increased | TNF-α production in RAW 264.7 cells stimulated with LPS ([6]; pre-incubated with LPS, 6 hours incubation (FIG. 1A)): dose-dependently inhibited | LPS-induced TNF-α production ([6]; various concentrations of LPS and rTMD1 (FIG. 1C)): dose-dependently inhibited
